Measured values as given in patent US20240124545A1, “COMPOSITIONS AND METHODS RELATING TO THE TREATMENT OF DISEASES” (ILC THERAPEUTICS LIMITED, priority 2021, published 2024).
Where “and” joins values, the source holds several entries; their conditions need not be identical. Equal values may be shown once. Read-outs that look alike come from different tables or passages of the source.

What was measured:
HRSV Long strain = test: HRSV infectivity assay, immunostaining readout in HEp-2 cells; type: cell-based, human respiratory syncytial virus (HRSV) Long strain; conditions: for HRSV Infectivity in HEp-2 cells (% vehicle): 72 hours, average of duplicates; for HRSV Infectivity in HEp-2 cells - Raw OD- Absorbance (490 nm): duplicate A490 values
HIV-1 LAI [1] = test: HIV-1 LAI infectivity assay with β-galactosidase readout (Experiment 5); type: cell-based, human immunodeficiency virus type 1 (HIV-1) LAI strain; conditions: for HIV-1 Infectivity in HeLa-CD4-βgal cells (% vehicle): mean of duplicates; for HIV Infectivity in HeLa CD4 βgal cells (β-galactosidase units): individual values
[2] = system: SK-OV-3 NucLight Red cells co-cultured with natural killer (NK) cells; test: Live cell imaging assay of immune cell killing (IncuCyte ZOOM); type: cell-based
Experimental: The effect of a hybrid recombinant interferon was tested in a live cell imaging assay of immune cell killing on an IncuCyte ZOOM platform. SK-OV-3 ovarian cancer cells with red labelled nuclei (SK-OV-3 NucLight Red) were used as target cells in the study. For immune cell killing, the cells were co-cultured with natural killer (NK) cells and positive controls consisted of cells treated with IL-2 and IL-12. Apoptosis was detected by staining caspase 3/7 positive objects while cell number was determined by counting of red nuclei. […] An initial optimisation experiment was carried out that tested 4 ratios of target and effector cells. […] Results were compared to no treatment controls, vehicle treated controls and IL-2/IL-12 treated cells. All conditions were tested using cells in co-culture (SK-OV-3 NucLight and NK cells) and mono-culture (SK-OV-3 NucLight Red). Cells were monitored for 4 days using an IncuCyte ZOOM, and IncuCyte software was used to measure green (apoptosis) and red (cell number) object count over time. Area under the curve (AUC) analysis was used to quantitate apoptosis and cell number over the time course.

natural killer cells = test: NK cell monoculture model (cell clustering); type: cell-based
IL-17A = test: Suppression of IL-17A synthesis; type: cell-based
IL 17F = test: Suppression of IL-17F; type: cell-based; conditions: listed as Hybrid 2
SARS-CoV-1 [3] = type: cell-based, SARS-HCoV2003VA2774; conditions: Vero E6 cells
SARS-CoV-1 [4] = type: cell-based
human RSV = test: Plaque assay with human RSV (FIG. 9); type: cell-based
[5] = system: Herpes Simplex Virus Type 1 (HSV1); test: HSV1 infection of primary human keratinocytes; type: cell-based
HIV-1 LAI [6] = conditions: for HIV Infectivity in HeLa-CD4-βgal cells (% vehicle): 48 hours
HeLa-CD4-βgal cells [7] = system: HeLa-CD4-βgal cells
HeLa-CD4-βgal cells [8] = system: HeLa-CD4-βgal cells; remark: listed apart in the source

B1: Sample B: recombinant IFN-α10-IFN-α14 hybrid interferon alpha, amino acid sequence SEQ ID NO:3; sample B in Experiments 4 and 5 (protein)
chain: CDLPQTHSLGNRRALILLGQMGRISPFSCLKDRHDFRIPQEEFDGNQFQKAQAISVLHEMMQQTFNLFSTKNSSAAWDETLLEKFYIELFQQMNDLEACVIQEVGVEETPLMNEDSILAVKKYFQRITLYLIERKYSPCAWEVVRAEIMRSLSFSTNLQKRLRRKD
HRSV Infectivity in HEp-2 cells (% vehicle) (HRSV Long strain; 0.001 ng/mL): 91.5 % vehicle | HRSV Infectivity in HEp-2 cells - Raw OD- Absorbance (490 nm) (HRSV Long strain; 0.001 ng/mL): 0.647 and 0.675 | HRSV Infectivity in HEp-2 cells (% vehicle) (HRSV Long strain; 0.01 ng/mL): 71.3 % vehicle | HRSV Infectivity in HEp-2 cells - Raw OD- Absorbance (490 nm) (HRSV Long strain; 0.01 ng/mL): 0.550 and 0.573 | HRSV Infectivity in HEp-2 cells (% vehicle) (HRSV Long strain; 0.1 ng/mL): 27.6 % vehicle | HRSV Infectivity in HEp-2 cells - Raw OD- Absorbance (490 nm) (HRSV Long strain; 0.1 ng/mL): 0.353 and 0.338 | HRSV Infectivity in HEp-2 cells (% vehicle) (HRSV Long strain; 1.0 ng/mL): 9.7 % vehicle | HRSV Infectivity in HEp-2 cells - Raw OD- Absorbance (490 nm) (HRSV Long strain; 1.0 ng/mL): 0.244 and 0.270 | HRSV Infectivity in HEp-2 cells (% vehicle) (HRSV Long strain; 10 ng/mL): 12.3 % vehicle | HRSV Infectivity in HEp-2 cells - Raw OD- Absorbance (490 nm) (HRSV Long strain; 10 ng/mL): 0.248 and 0.292 | HRSV Infectivity in HEp-2 cells (% vehicle) (HRSV Long strain; 100 ng/mL): 11.9 % vehicle | HRSV Infectivity in HEp-2 cells - Raw OD- Absorbance (490 nm) (HRSV Long strain; 100 ng/mL): 0.283 and 0.253 | HRSV Infectivity in HEp-2 cells (% vehicle) (HRSV Long strain; 1,000 ng/mL): 9.6 % vehicle | HRSV Infectivity in HEp-2 cells - Raw OD- Absorbance (490 nm) (HRSV Long strain; 1,000 ng/mL): 0.262 and 0.251 | HRSV Infectivity in HEp-2 cells (% vehicle) (HRSV Long strain; 10,000 ng/mL): 6.6 % vehicle | HRSV Infectivity in HEp-2 cells - Raw OD- Absorbance (490 nm) (HRSV Long strain; 10,000 ng/mL): 0.252 and 0.230 | IC50 (infectivity), HRSV Antiviral Assay (HRSV Long strain; HRSV Long, Hep-2 cells, 3 days): 0.03 ng/mL and 0.027 ng/mL | HIV-1 Infectivity in HeLa-CD4-βgal cells (% vehicle) (HIV-1 LAI [1]; 0.0001 ng/mL, 48 hours): 102.4 % vehicle | HIV Infectivity in HeLa CD4 βgal cells (β-galactosidase units) (HIV-1 LAI [1]; 0.0001 ng/mL): 971,384 RLU and 1,112,752 RLU | HIV-1 Infectivity in HeLa-CD4-βgal cells (% vehicle) (HIV-1 LAI [1]; 0.001 ng/mL, 48 hours): 96.3 % vehicle | HIV Infectivity in HeLa CD4 βgal cells (β-galactosidase units) (HIV-1 LAI [1]; 0.001 ng/mL): 1,062,736 RLU and 896,209 RLU | HIV-1 Infectivity in HeLa-CD4-βgal cells (% vehicle) (HIV-1 LAI [1]; 0.01 ng/mL, 48 hours): 77.7 % vehicle | HIV Infectivity in HeLa CD4 βgal cells (β-galactosidase units) (HIV-1 LAI [1]; 0.01 ng/mL): 761,455 RLU and 820,758 RLU | HIV-1 Infectivity in HeLa-CD4-βgal cells (% vehicle) (HIV-1 LAI [1]; 0.1 ng/mL, 48 hours): 58.0 % vehicle | HIV Infectivity in HeLa CD4 βgal cells (β-galactosidase units) (HIV-1 LAI [1]; 0.1 ng/mL): 588,618 RLU and 595,007 RLU | HIV-1 Infectivity in HeLa-CD4-βgal cells (% vehicle) (HIV-1 LAI [1]; 1 ng/mL, 48 hours): 36.0 % vehicle | HIV Infectivity in HeLa CD4 βgal cells (β-galactosidase units) (HIV-1 LAI [1]; 1.0 ng/mL): 343,482 RLU and 394,833 RLU | HIV-1 Infectivity in HeLa-CD4-βgal cells (% vehicle) (HIV-1 LAI [1]; 10 ng/mL, 48 hours): 30.2 % vehicle | HIV Infectivity in HeLa CD4 βgal cells (β-galactosidase units) (HIV-1 LAI [1]; 10 ng/mL): 302,405 RLU and 317,823 RLU | HIV-1 Infectivity in HeLa-CD4-βgal cells (% vehicle) (HIV-1 LAI [1]; 100 ng/mL, 48 hours): 28.9 % vehicle | HIV Infectivity in HeLa CD4 βgal cells (β-galactosidase units) (HIV-1 LAI [1]; 100 ng/mL): 278,916 RLU and 314,495 RLU | HIV-1 Infectivity in HeLa-CD4-βgal cells (% vehicle) (HIV-1 LAI [1]; 1,000 ng/mL, 48 hours): 30.7 % vehicle | HIV Infectivity in HeLa CD4 βgal cells (β-galactosidase units) (HIV-1 LAI [1]; 1,000 ng/mL): 299,975 RLU and 330,705 RLU | HIV-1 Infectivity in HeLa-CD4-βgal cells (% vehicle) (HIV-1 LAI [1]; 10,000 ng/mL, 48 hours): 31.5 % vehicle | HIV Infectivity in HeLa CD4 βgal cells (β-galactosidase units) (HIV-1 LAI [1]; 10,000 ng/mL): 300,821 RLU and 344,654 RLU | IC50 (infectivity), HIV-1 Antiviral Assay (HeLa-CD4-Bgal cells) (HIV-1 LAI [1]; HIV-1 LAI, 48 hours): 0.03 ng/mL | infection signal still observed (HIV-1 LAI [1]; highest concentrations tested (10 μg/mL)): about 25% | IC50 for the reduction in cell number [2]: 1.3×10^6 IU/ml | apoptosis response of cells in mono-culture ([2]; SK-OV-3 NucLight Red mono-culture): only a marginal response | EC50 for apoptosis induction ([2]; co-culture model): 1.5×10^6 IU/ml | AUC of apoptosis (caspase 3/7 positive object count over time) ([2]; co-culture model, top dose (3×10^6 IU/ml), 4 days, vehicle controls 200): 1174 | AUC values for cell number (red nuclei count over time) ([2]; top dose, vehicle controls 39921): 19501 | direct activation of natural killer cells (cell clustering) (natural killer cells): very strong direct activation of natural killer cells | suppression of IL-17A synthesis (IL-17A; listed as HYBRID 2): suppression of IL-17A synthesis | suppression of IL-17A synthesis (IL-17A; listed as Hybrid 2): inhibits both 17 A and F very strongly | suppression of IL 17F (IL 17F): inhibits both 17 A and F very strongly | inhibition of the cytopathic effect following SARS-CoV-1 infection (SARS-CoV-1 [3]): inhibit the cytopathic effect | inhibition of plaque formation following SARS-CoV-1 infection (SARS-CoV-1 [4]): inhibit the cytopathic effect and plaque formation | inhibition of a plaque assay with human RSV (human RSV): inhibition of a plaque assay with human RSV | effect on HSV1 infection [5]: reduces Herpes Simplex Virus Type 1 (HSV1) infection | IC50 (infectivity), HIV-1 Antiviral Assay (HIV-1 LAI [6]): 0.009 ng/mL | HIV Infectivity in HeLa CD4 βgal cells (β-galactosidase units) (HIV-1 LAI [6]; 0.0001 ng/mL): 1,159,421 RLU and 1,143,347 RLU | HIV Infectivity in HeLa-CD4-βgal cells (% vehicle) (HIV-1 LAI [6]; 0.0001 ng/mL): 101.4 % vehicle | HIV Infectivity in HeLa-CD4-βgal cells (% vehicle) (HIV-1 LAI [6]; 0.001 ng/mL): 91.9 % vehicle | HIV Infectivity in HeLa CD4 βgal cells (β-galactosidase units) (HIV-1 LAI [6]; 0.01 ng/mL): 729,428 RLU and 754,356 RLU | HIV Infectivity in HeLa-CD4-βgal cells (% vehicle) (HIV-1 LAI [6]; 0.01 ng/mL): 65.2 % vehicle | HIV Infectivity in HeLa CD4 βgal cells (β-galactosidase units) (HIV-1 LAI [6]; 0.1 ng/mL): 505,696 RLU and 431,727 RLU | HIV Infectivity in HeLa-CD4-βgal cells (% vehicle) (HIV-1 LAI [6]; 0.1 ng/mL): 41.1 % vehicle | HIV Infectivity in HeLa CD4 βgal cells (β-galactosidase units) (HIV-1 LAI [6]; 1.0 ng/mL): 338,683 RLU and 353,822 RLU | HIV Infectivity in HeLa-CD4-βgal cells (% vehicle) (HIV-1 LAI [6]; 1.0 ng/mL): 30.3 % vehicle | HIV Infectivity in HeLa CD4 βgal cells (β-galactosidase units) (HIV-1 LAI [6]; 10 ng/mL): 292,575 RLU and 343,225 RLU | HIV Infectivity in HeLa-CD4-βgal cells (% vehicle) (HIV-1 LAI [6]; 10 ng/mL): 27.8 % vehicle | HIV Infectivity in HeLa CD4 βgal cells (β-galactosidase units) (HIV-1 LAI [6]; 100 ng/mL): 289,671 RLU and 320,902 RLU | HIV Infectivity in HeLa-CD4-βgal cells (% vehicle) (HIV-1 LAI [6]; 100 ng/mL): 26.7 % vehicle | HIV Infectivity in HeLa CD4 βgal cells (β-galactosidase units) (HIV-1 LAI [6]; 1,000 ng/mL): 340,382 RLU and 330,715 RLU | HIV Infectivity in HeLa-CD4-βgal cells (% vehicle) (HIV-1 LAI [6]; 1,000 ng/mL): 29.4 % vehicle | HIV Infectivity in HeLa CD4 βgal cells (β-galactosidase units) (HIV-1 LAI [6]; 10,000 ng/mL): 363,841 RLU and 344,014 RLU | HIV Infectivity in HeLa-CD4-βgal cells (% vehicle) (HIV-1 LAI [6]; 10,000 ng/mL): 31.0 % vehicle | CC50, Cytotoxicity Assay (HeLa-CD4-βgal cells) (HeLa-CD4-βgal cells [7]): >10000 ng/mL | CC50, Cytotoxicity Assay (Hep-2 cells) (HEp-2 cells): >10000 ng/mL | CC50, Cytotoxicity Assay (uninfected HeLa-CD4-Bgal cells) (HeLa-CD4-βgal cells [8]): >10000 ng/mL
